From patent US20260242478A1 (published 2026)

Key:
Peptide-120 [1] = molecular target: T1, Peptide-120; experiment: binding ELISA, biotinylated peptide on neutravidin plate, Fab titrated
T1 peptide: YCEGHLPEYIEKCL

Peptide-119 = molecular target: T2, Peptide-119; experiment: as above
T2 peptide: YCEGHEGIYFWKCL

Peptide-129 = molecular target: T3, Peptide-129; experiment: as above
T3 peptide: YCEGHSSEYIQKCL

Peptide-117 = molecular target: T4, Peptide-117; experiment: as above
T4 peptide: YCEGHSPEYILKCL

Peptide-126 = molecular target: T5, Peptide-126; experiment: BLI (Octet), biotinylated peptide on sensor, Fab in solution
T5 peptide: YCEGHLPEYREKCL

Peptide-120 [2] = molecular target: T1, Peptide-120; experiment: as above
Peptide-132 = molecular target: T6, Peptide-132; experiment: as above
T6 peptide: YCEGHLPEYRNKCL

Peptide-134 = molecular target: T7, Peptide-134; experiment: as above
T7 peptide: YCEGHLPEYIQKCL

Peptide-135 = molecular target: T8, Peptide-135; experiment: as above
T8 peptide: YCEGHLPEYIWKCL

Peptide-121 = molecular target: T9, Peptide-121; experiment: as above
T9 peptide: YCEGHAPEYIAKCL

Peptide-87 = molecular target: T10, Peptide-87; experiment: as above
T10 peptide: YCAGHAWQYINKCL

Peptide-127 = molecular target: T11, Peptide-127; experiment: as above
T11 peptide: YCEGHLPEYLAKCL

EC50 (Peptide-120 [1]): 0.0031 µM | EC50 (Peptide-119): 0.128 µM | EC50 (Peptide-129): 0.0305 µM | EC50 (Peptide-117): 0.011 µM | Off rate t½ (Peptide-126): 36 s | Off rate t½ (Peptide-120 [2]): 30 s | Off rate t½ (Peptide-132): 48 s | Off rate t½ (Peptide-134): 54 s | Off rate t½ (Peptide-135): 54 s | Off rate t½ (Peptide-121): 24 s | Off rate t½ (Peptide-87): 42 s | Off rate t½ (Peptide-127): 60 s
B1: anti-CD28 Fab (Fab, V domains shown)
VH: QVQLVQSGAEVKKPGASVKVSCKASGYTFTSYYIHWVRQAPGQGLEWIGSIYPGNVNTNYNEKFKDRATLTVDTSISTAYMELSRLRSDDTAVYFCTRSHYGLDWNFDVWGQGTTVTVSS
VL: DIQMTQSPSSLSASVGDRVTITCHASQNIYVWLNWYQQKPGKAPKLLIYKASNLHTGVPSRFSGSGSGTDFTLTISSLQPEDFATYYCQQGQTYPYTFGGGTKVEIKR
